Measured values taken from article PMC4894760 (Journal of controlled release : official journal of the …, 2016).

Molecular target: recombinant human SDF1 (free SDF1) (human, UniProt P48061-2 22-89)
Assay: SPR

Chain of recombinant human SDF1 (free SDF1) (P48061 22-89): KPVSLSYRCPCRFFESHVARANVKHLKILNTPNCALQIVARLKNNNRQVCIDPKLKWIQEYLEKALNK

Kd: 0.3 nM
B1: recombinant human CXCR4 (receptor, UniProt P61073 1-352, looked up)
chain: MEGISIYTSDNYTEEMGSGDYDSMKEPCFREENANFNKIFLPTIYSIIFLTGIVGNGLVILVMGYQKKLRSMTDKYRLHLSVADLLFVITLPFWAVDAVANWYFGNFLCKAVHVIYTVNLYSSVLILAFISLDRYLAIVHATNSQRPRKLLAEKVVYVGVWIPALLLTIPDFIFANVSEADDRYICDRFYPNDLWVVVFQFQHIMVGLILPGIVILSCYCIIISKLSHSKGHQKRKALKTTVILILAFFACWLPYYIGISIDSFILLEIIKQGCEFENTVHKWISITEALAFFHCCLNPILYAFLGAKFKTSAQHALTSVSRGSSLKILSKGKRGGHSSVSTESESSSFHSS
